Measurements reported in patent publication US20250163186A1 (PHYLAXIS BIOSCIENCE, published 2025).

Each binder was assayed against T1, CH2-4 constant domains of human IgE linked to a transmembrane protein, on 293 cells (human, UniProt P01854-1 104-428) (assay: flow cytometry, 293 cells expressing human IgE CH2-4).
T1 construct: domain: CH2-4 constant domains; also called human IgE-expressing 293 cells
Description: First, 25 μg of DNA was added to Opti-MEM Reduced Serum Medium (Gibco) mixed with 75 μL of 40 kDa Polyethylenimine (PEI) for a final concentration of 1 μg DNA and 2.5 μg PEI per mL of culture volume. The plasmid DNA was allowed to pre-complex with PEI for 15 minutes before transferring the mixture to 25 mL of 293 cells in a shake flask at a density of 2×10⁶ cells/mL. […] Next, 50 μL of cells were transferred to wells of a round-bottom 96-well assay plate for a total of 50,000 293 cells per well. In a separate 96-well plate, monomeric VHH-hIgG1-Fc fusion proteins were titrated 1:5 in a 8-point dilution series starting at 1 μM in FACS Buffer with the 8th point containing no antibody. 50 μL from each antibody dilution was added to wells containing 50 μL of FACS Buffer with transfected 293 cells which produced a 2-fold dilution of the antibody concentrations from the dilution series resulting in a 500 nM final, starting concentration of the test article titration. The test articles and 293 cells were incubated together at 4° C. for 30 minutes. Next, the 96-well plates were centrifuged at 400×g for 5 minutes and the FACS buffer containing unbound antibody was decanted. Cells were washed 1× with 150 μL 4° C. FACS Buffer. […] The cells were incubated with the fluorophore conjugated detection antibody at 4° C. for 20 minutes. 293 cells were then centrifuged and washed once as described above. Cell pellets were resuspended in 30 μL FACS Buffer and analyzed on an iQue Screener Plus flow cytometer (Sartorius, IntelliCyt) with a 1 second sip time and 1 second void time. Mean fluorescent intensity was calculated using iQue onboard software gating on GFP+ or citrine+ cells.

T1 sequence (P01854 other isoform, or with tags, fused parts or gaps): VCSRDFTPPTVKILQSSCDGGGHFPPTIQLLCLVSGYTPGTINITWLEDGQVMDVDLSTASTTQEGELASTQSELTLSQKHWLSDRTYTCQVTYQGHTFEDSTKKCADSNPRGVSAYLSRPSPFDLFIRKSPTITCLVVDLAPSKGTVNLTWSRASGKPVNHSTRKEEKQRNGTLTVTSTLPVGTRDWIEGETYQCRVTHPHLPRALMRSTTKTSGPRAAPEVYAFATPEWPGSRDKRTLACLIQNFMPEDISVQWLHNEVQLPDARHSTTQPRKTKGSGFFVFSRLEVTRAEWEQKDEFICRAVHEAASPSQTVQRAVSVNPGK

Row | Bmax [MFI] | Kd [nM] | Binder
1 | 1.95e+06 | 2.11 | hzB10v14-NNT (Fc fusion, monomeric) VHH-Fc: EVQLLESGGGEVQPGGSLRLSCVASGLTFSSYNMGWLRQAPGKEREFVGLSGSSSTSTYYADSVKGRFTISRDNSKNTVYLQMNSLKPEDTAVYYCAARRLLSTYWSDRSWDFWGQGTQVTVEPGGPSVFLFPPKPKDTLMISRTPEVTCVVVDVSHEDPEVKFNWYVDGVEVHNAKTKPREEQYNSTYRVVSVLTVLHQDWLNGKEYKCKVSNKALPAPIEKTISKAKGQPREPQVYTLPPSRDELTKNQVNLTCLVKGFYPSDIAVEWESNGQPENNYKTTPPVLDSDGSFFLNSTLTVDKSRWQQGNVFSCSVMHEALHNHYTQKSLSLSPGK
2 | 1.89e+06 | 10 | hzB10v15-NNT (Fc fusion, monomeric) VHH-Fc: EVQLLESGGGEVQPGGSLRLSCVASGLTFSSYNMGWVRQAPGKEREFVSLSGSSSTSTYYADSVKGRFTISRDNSKNTVYLQMNSLKPEDTAVYYCAARRLLSTYWSDRSWDFWGQGTQVTVEPGGPSVFLFPPKPKDTLMISRTPEVTCVVVDVSHEDPEVKFNWYVDGVEVHNAKTKPREEQYNSTYRVVSVLTVLHQDWLNGKEYKCKVSNKALPAPIEKTISKAKGQPREPQVYTLPPSRDELTKNQVNLTCLVKGFYPSDIAVEWESNGQPENNYKTTPPVLDSDGSFFLNSTLTVDKSRWQQGNVFSCSVMHEALHNHYTQKSLSLSPGK
3 | 2.23e+06 | 1.89 | hzB10v16-NNT (Fc fusion, monomeric) VHH-Fc: EVQLLESGGGEVQPGGSLRLSCVASGLTFSSYNMGWLRQAPGKEREFVGLSGSSSTSTYYAESVKGRFTISRDNSKNTVYLQMNSLKPEDTAVYYCAARRLLSTYWSDRSWDFWGQGTQVTVEPGGPSVFLFPPKPKDTLMISRTPEVTCVVVDVSHEDPEVKFNWYVDGVEVHNAKTKPREEQYNSTYRVVSVLTVLHQDWLNGKEYKCKVSNKALPAPIEKTISKAKGQPREPQVYTLPPSRDELTKNQVNLTCLVKGFYPSDIAVEWESNGQPENNYKTTPPVLDSDGSFFLNSTLTVDKSRWQQGNVFSCSVMHEALHNHYTQKSLSLSPGK
4 | 1.95e+06 | 5.07 | hzB10v18-NNT (Fc fusion, monomeric) VHH-Fc: EVQLLESGGGEVQPGGSLRLSCVASGLTFSSYNMGWLRQAPGKEREFVGLSGSSSTSTYYADTVKGRFTISRDNSKNTVYLQMNSLKPEDTAVYYCAARRLLSTYWSDRSWDFWGQGTQVTVEPGGPSVFLFPPKPKDTLMISRTPEVTCVVVDVSHEDPEVKFNWYVDGVEVHNAKTKPREEQYNSTYRVVSVLTVLHQDWLNGKEYKCKVSNKALPAPIEKTISKAKGQPREPQVYTLPPSRDELTKNQVNLTCLVKGFYPSDIAVEWESNGQPENNYKTTPPVLDSDGSFFLNSTLTVDKSRWQQGNVFSCSVMHEALHNHYTQKSLSLSPGK
5 | 2.24e+06 | 6.01 | hzB10v20-NNT (Fc fusion, monomeric) VHH-Fc: EVQLLESGGGEVQPGGSLRLSCVASGLTFSSYNMGWLRQAPGKEREFVGLSGSSSTSTYYADSVKGRFTISRDNSKNTLYLQMNSLKPEDTAVYYCAARRLLSTYWSDRSWDFWGQGTQVTVEPGGPSVFLFPPKPKDTLMISRTPEVTCVVVDVSHEDPEVKFNWYVDGVEVHNAKTKPREEQYNSTYRVVSVLTVLHQDWLNGKEYKCKVSNKALPAPIEKTISKAKGQPREPQVYTLPPSRDELTKNQVNLTCLVKGFYPSDIAVEWESNGQPENNYKTTPPVLDSDGSFFLNSTLTVDKSRWQQGNVFSCSVMHEALHNHYTQKSLSLSPGK
6 | 2.07e+06 | 1.7 | hzB10v17-NNT (Fc fusion, monomeric) VHH-Fc: EVQLLESGGGEVQPGGSLRLSCVASGLTFSSYNMGWLRQAPGKEREFVGLSGSSSTSTYYADAVKGRFTISRDNSKNTVYLQMNSLKPEDTAVYYCAARRLLSTYWSDRSWDFWGQGTQVTVEPGGPSVFLFPPKPKDTLMISRTPEVTCVVVDVSHEDPEVKFNWYVDGVEVHNAKTKPREEQYNSTYRVVSVLTVLHQDWLNGKEYKCKVSNKALPAPIEKTISKAKGQPREPQVYTLPPSRDELTKNQVNLTCLVKGFYPSDIAVEWESNGQPENNYKTTPPVLDSDGSFFLNSTLTVDKSRWQQGNVFSCSVMHEALHNHYTQKSLSLSPGK
7 | 3.89e+06 | 75 | hzB10v4-NNT (Fc fusion, monomeric) VHH-Fc: EVQLVQSGGELVQAGGSLRLSCVASGLTFSSYNMGWLRQAPGKEREFVGMSGSSSTSTYYAESVKGRFTISRDNAKNTLYLQMSSLRAEDTAVYYCAARRMLSTYWSDRSWDFWGQGTQVTVKPGGPSVFLFPPKPKDTLMISRTPEVTCVVVDVSHEDPEVKFNWYVDGVEVHNAKTKPREEQYNSTYRVVSVLTVLHQDWLNGKEYKCKVSNKALPAPIEKTISKAKGQPREPQVYTLPPSRDELTKNQVNLTCLVKGFYPSDIAVEWESNGQPENNYKTTPPVLDSDGSFFLNSTLTVDKSRWQQGNVFSCSVMHEALHNHYTQKSLSLSPGK
8 |  | 1.37 | hzB10v1-NNT (Fc fusion, monomeric) VHH-Fc: EVQLLESGGGLVQPGGSLRLSCVASGLTFSSYNMGWLRQAPGKEREFVGMSGSSSTSTYYADSVKGRFTISRDNSKNTVYLQMNSLKPEDTAVYYCAARRMLSTYWSDRSWDFWGQGTQVTVKPGGPSVFLFPPKPKDTLMISRTPEVTCVVVDVSHEDPEVKFNWYVDGVEVHNAKTKPREEQYNSTYRVVSVLTVLHQDWLNGKEYKCKVSNKALPAPIEKTISKAKGQPREPQVYTLPPSRDELTKNQVNLTCLVKGFYPSDIAVEWESNGQPENNYKTTPPVLDSDGSFFLNSTLTVDKSRWQQGNVFSCSVMHEALHNHYTQKSLSLSPGK
9 | 3.34e+06 | 3.71 | hzB10v7-NNT (Fc fusion, monomeric) VHH-Fc: EVQLVQSGGELVQAGGSLRLSCVASGLTFSSYNMGWLRQAPGKEREFVGLSGSSSTSTYYADSVKGRFTISRDNSKNTVYLQMNSLKPEDTAVYYCAARRMLSTYWSDRSWDFWGQGTQVTVKPGGPSVFLFPPKPKDTLMISRTPEVTCVVVDVSHEDPEVKFNWYVDGVEVHNAKTKPREEQYNSTYRVVSVLTVLHQDWLNGKEYKCKVSNKALPAPIEKTISKAKGQPREPQVYTLPPSRDELTKNQVNLTCLVKGFYPSDIAVEWESNGQPENNYKTTPPVLDSDGSFFLNSTLTVDKSRWQQGNVFSCSVMHEALHNHYTQKSLSLSPGK
10 |  | 2.5 | hzB10v5-NNT (Fc fusion, monomeric) VHH-Fc: EVQLVQSGGELVQAGGSLRLSCVASGLTFSSYNMGWLRQAPGKEREFVGMSGSSSTSTYYADSVKGRFTISRDNSKNTVYLQMNSLKPEDTAVYYCAARRMLSTYWSDRSWDFWGQGTQVTVEPGGPSVFLFPPKPKDTLMISRTPEVTCVVVDVSHEDPEVKFNWYVDGVEVHNAKTKPREEQYNSTYRVVSVLTVLHQDWLNGKEYKCKVSNKALPAPIEKTISKAKGQPREPQVYTLPPSRDELTKNQVNLTCLVKGFYPSDIAVEWESNGQPENNYKTTPPVLDSDGSFFLNSTLTVDKSRWQQGNVFSCSVMHEALHNHYTQKSLSLSPGK
11 | 1.69e+06 | 342 | hzB10v3-NNT (Fc fusion, monomeric) VHH-Fc: EVQLVQSGGELVQAGGSLRLSCVASGLTFSSYNMGWVRQAPGKEREFVGMSGSSSTSTYYADSVKGRFTISRDNSKNTVYLQMNSLKPEDTAVYYCAARRMLSTYWSDRSWDFWGQGTQVTVKPGGPSVFLFPPKPKDTLMISRTPEVTCVVVDVSHEDPEVKFNWYVDGVEVHNAKTKPREEQYNSTYRVVSVLTVLHQDWLNGKEYKCKVSNKALPAPIEKTISKAKGQPREPQVYTLPPSRDELTKNQVNLTCLVKGFYPSDIAVEWESNGQPENNYKTTPPVLDSDGSFFLNSTLTVDKSRWQQGNVFSCSVMHEALHNHYTQKSLSLSPGK
12 | 2.46e+06 | 1.81 | hzB10v2-NNT (Fc fusion, monomeric) VHH-Fc: EVQLVQSGGELVQAGGSLRLSCVASGLTFSSYNMGWVRQAPGKEREFVSMSGSSSTSTYYADSVKGRFTISRDNSKNTVYLQMNSLKPEDTAVYYCAARRMLSTYWSDRSWDFWGQGTQVTVKPGGPSVFLFPPKPKDTLMISRTPEVTCVVVDVSHEDPEVKFNWYVDGVEVHNAKTKPREEQYNSTYRVVSVLTVLHQDWLNGKEYKCKVSNKALPAPIEKTISKAKGQPREPQVYTLPPSRDELTKNQVNLTCLVKGFYPSDIAVEWESNGQPENNYKTTPPVLDSDGSFFLNSTLTVDKSRWQQGNVFSCSVMHEALHNHYTQKSLSLSPGK
13 |  | 1.95 | hzB10v6-NNT (Fc fusion, monomeric) VHH-Fc: EVQLVQSGGELVQAGGSLRLSCVASGLTFSSYNMGWLRQAPGKEREFVGMSGSSSTSTYYADSVKGRFTISRDNSKNTVYLQMNSLKPEDTAVYYCAARRMLSTYWSDRSWDFWGQGTQVTVRPGGPSVFLFPPKPKDTLMISRTPEVTCVVVDVSHEDPEVKFNWYVDGVEVHNAKTKPREEQYNSTYRVVSVLTVLHQDWLNGKEYKCKVSNKALPAPIEKTISKAKGQPREPQVYTLPPSRDELTKNQVNLTCLVKGFYPSDIAVEWESNGQPENNYKTTPPVLDSDGSFFLNSTLTVDKSRWQQGNVFSCSVMHEALHNHYTQKSLSLSPGK
